# Key:
# [1] = system: activated GPCRs; conditions: cited from earlier work
# [2] = system: tauopathy in tau P301S mice; assay: rAAV9 stereotaxic injection into hippocampus of 5-month old tau P301S mice; assay type: in vivo
# Description: Cells were fixed with 4% paraformaldehyde for 15 min at room temperature and washed with 0.2% triton in TBS and blocked using 3% BSA with 0.1% triton x-100 for 1 hr, incubated with primary antibodies for overnight at 4° C. and fluorescently labeled secondary antibodies for 45 min at room temperature. For immunohistochemistry, mice were perfused with PBS and fixed with 4% paraformaldehyde. 25-micron sections were blocked using normal goat serum for 1 h and incubated with primary antibodies at 4° C. overnight, followed by secondary antibody incubation for 1 h at room temperature prior to mounting. Images were captured with the Olympus FV10i confocal microscope (Tokyo, Japan), and the immunoreactivities were quantified using the Image J software (National Institutes of Health, Bethesda, MD). Immunoreactivities were quantitated from every 12th serial section through an entire hippocampus. In ICC and IHC experiments, all comparison images were acquired with identical laser intensity, exposure time, and filter. Adjustments to the brightness/contrast were applied equally to all comparison images. Regions of interest were chosen randomly, and investigators were blinded to experimental conditions during image acquisition and quantification.
# Brain homogenates and cultured cells were lysed with RIPA buffer (50 mM Tris pH 7.4, 150 mM NaCl, 2 mM ethlenediaminetetraacetic acid, 1% NP-40, 0.1% sodium dodecyl sulfate) plus protease and phosphatase inhibitors. Proteins were extracted and centrifuged at 15000 rpm for 15 min at 4° C., and RIPA insoluble fractions were lysed with 5% SDS with 1% β-mercaptoethanol, 50 mM Tris-HCl pH 6.8, 12.5 mM EDTA, 10% glycerol, and 0.02% bromophenol blue. Supernatants were used for western blot analysis. supernatants were used for western blot analysis. co-IP experiments were carried out from NP40 lysates or indicated buffers with preclearing with IgG beads followed by IP with IgG beads alone or IgG beads+indicated antibodies, extensive washing (5×) with the original buffer, and Western blotting on SDS-PAGE. […]
# [3] = biological target: T1, βarrestin1/βarrestin2 hetero-oligomers (UniProt P29067+P49407); assay: PLA for βarrestin1/βarrestin2 hetero-oligomers in HeLa-V5-tau cells; assay type: cell-based
# T1 construct: expressed in transfected cells; host or cells: HeLa-V5-tau cells
# T1 sequence (P49407 whole entry): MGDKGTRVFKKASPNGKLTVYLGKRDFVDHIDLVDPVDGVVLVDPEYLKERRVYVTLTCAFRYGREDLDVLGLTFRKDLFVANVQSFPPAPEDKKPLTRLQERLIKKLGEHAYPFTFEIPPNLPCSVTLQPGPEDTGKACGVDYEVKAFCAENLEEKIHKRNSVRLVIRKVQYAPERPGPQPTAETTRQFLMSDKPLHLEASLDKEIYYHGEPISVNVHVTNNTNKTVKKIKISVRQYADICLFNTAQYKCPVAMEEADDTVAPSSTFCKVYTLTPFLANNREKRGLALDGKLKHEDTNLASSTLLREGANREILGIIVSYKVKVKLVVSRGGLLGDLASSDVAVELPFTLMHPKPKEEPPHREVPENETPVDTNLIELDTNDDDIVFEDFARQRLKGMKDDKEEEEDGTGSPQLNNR
# T1 sequence (P29067 whole entry): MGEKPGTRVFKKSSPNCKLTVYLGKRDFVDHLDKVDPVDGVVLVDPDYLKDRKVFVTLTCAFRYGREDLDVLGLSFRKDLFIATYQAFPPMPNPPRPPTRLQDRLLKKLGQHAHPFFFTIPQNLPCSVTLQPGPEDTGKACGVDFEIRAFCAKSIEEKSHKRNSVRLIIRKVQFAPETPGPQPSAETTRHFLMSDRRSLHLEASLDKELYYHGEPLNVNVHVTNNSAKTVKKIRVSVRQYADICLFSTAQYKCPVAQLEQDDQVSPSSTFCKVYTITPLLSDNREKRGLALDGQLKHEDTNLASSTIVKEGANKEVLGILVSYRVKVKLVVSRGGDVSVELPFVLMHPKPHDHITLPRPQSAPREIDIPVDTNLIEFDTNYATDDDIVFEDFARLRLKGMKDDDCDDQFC
# Text: (§1) FIGS. 24A to 24D show β-arrestin2 oligomerization mutants impair β-arrestin1 homo-oligomers and β-arrestin1/β-arrestin2 hetero-oligomers. HeLa-V5-tau cells were co-transfected with vector control or β-arrestin2 oligomerization mutants (ΔIP6C or ΔIP6N) together with βarrestin1-GFP+βarrestin1-myc or βarrestin2-myc. Cells were then subjected to proximity ligation assay (PLA) using antibodies against GFP and mycto detect βarrestin1 homo-oligomers (FIGS. 24A,24B) and βarrestin1/βarrestin2 hetero-oligomers and DAPI staining (FIGS. 24C,24D) (puncta).
# [4] = biological target: T2, βarrestin1 homo-oligomers (Homo sapiens, UniProt P49407); assay: PLA for βarrestin1 homo-oligomers in HeLa-V5-tau cells; assay type: cell-based
# T2 construct: expressed in transfected cells; host or cells: HeLa-V5-tau cells
# T2 sequence (P49407 whole entry): as the sequence (P49407 whole entry) above
# T2 sequence (P49407 whole entry): as above
# Text: as §1
# [5] = biological target: T3, HA-p62 and GFP-p62 interaction (Homo sapiens, UniProt Q13501); assay: Co-IP of HA-p62 and GFP-p62 interaction; assay type: cell-based; conditions: Hela-V5-tau cells
# T3 construct: #38277; host or cells: Hela-V5-tau cells
# Text: FIGS. 12A to 12E show β-arrestin2 interacts with p62, and β-arrestin2 oligomerization inhibits p62 self-interaction. FIG. 12A contains representative confocal images of mCherry and EGFP in Hela-V5-tau cells transfected with mCherry-GFP-p62 together with control vector, β-arrestin2-flag, or β-arrestin2 ΔIP6N-flag (Scale bar=10 μm). […] The box and whisker plots show all data points, and the box plots show all data points, the median and IQR, and the minimal and maximal values. FIG. 12C contains representative immunoblots of indicated proteins from Hela-V5-tau cells transfected GFP or GFP-β-arrestin2 with/without HA-p62. Note that β-arrestin2 is present in HA immune complexes only in the presence of HA-p62, whereas β-arrestin2 is not detected in control IgG beads. […] Lysates were subjected to IP for HA. […] FIG. 12F show quantification of flag/p62 PLA puncta/cell (N=4 independent experiments, #P<0.0001).
# Brain homogenates and cultured cells were lysed with RIPA buffer (50 mM Tris pH 7.4, 150 mM NaCl, 2 mM ethlenediaminetetraacetic acid, 1% NP-40, 0.1% sodium dodecyl sulfate) plus protease and phosphatase inhibitors. Proteins were extracted and centrifuged at 15000 rpm for 15 min at 4° C., and RIPA insoluble fractions were lysed with 5% SDS with 1% β-mercaptoethanol, 50 mM Tris-HCl pH 6.8, 12.5 mM EDTA, 10% glycerol, and 0.02% bromophenol blue. […]
molecule,measurement,setting,value
"β-arrestin2 ΔIP6N: β-arrestin2 N-terminal domain mutant (K158A, K161A, and R162A), incapable of forming oligomers; dominant negative (protein, UniProt P32121 1-409, looked up, variant K158A K161A R162A, GFP or YFP tag, dominant negative) Beta-arrestin-2: MGEKPGTRVFKKSSPNCKLTVYLGKRDFVDHLDKVDPVDGVVLVDPDYLKDRKVFVTLTCAFRYGREDLDVLGLSFRKDLFIATYQAFPPVPNPPRPPTRLQDRLLRKLGQHAHPFFFTIPQNLPCSVTLQPGPEDTGKACGVDFEIRAFCAKSLEEASHAANSVRLVIRKVQFAPEKPGPQPSAETTRHFLMSDRSLHLEASLDKELYYHGEPLNVNVHVTNNSTKTVKKIKVSVRQYADICLFSTAQYKCPVAQLEQDDQVSPSSTFCKVYTITPLLSDNREKRGLALDGKLKHEDTNLASSTIVKEGANKEVLGILVSYRVKVKLVVSRGGDVSVELPFVLMHPKPHDHIPLPRPQSAAPETDVPVDTNLIEFDTNYATDDDIVFEDFARLRLKGMKDDDYDDQLC",binding to activated GPCRs,[1],bind to activated GPCRs with WT affinity
same,tau levels in individual brain cells with verified expression,[2]; cells verified by GFP tags,essentially undetectable
same,HT7-immunoreactive tau,[2]; expressing neurons vs GFP-expressing control or non-infected neurons,significant reductions
same,sarkosyl-insoluble tau,"[2]; tau P301S mice, two months post injection, vs GFP control",markedly reduced
same,βarrestin1/βarrestin2 hetero-oligomers (PLA puncta),[3],significantly reduce
same,βarrestin1 homo-oligomers (PLA puncta),[4],significantly reduce
same,HA-p62 and GFP-p62 interaction by co-IP,[5],neither β-arrestin2 ΔIP6C nor β-arrestin2 ΔIP6N alone were capable of reducing HA-p62 and GFP-p62 interaction
